Test results taken from US12630600B2 (MEDIMMUNE LIMITED, priority 2022, dated 2026).
Starred links: 1 amine or outer side, 2 acyl side, 3 side chain; linkers in the order of their positions; H or OH if unused. Non-standard residues stand in square brackets, D forms with d. Groups on a side chain read outwards from the residue. No end group written: not given here. *: point of attachment. C20 diacid = O=C(O)CCCCCCCCCCCCCCCCCCC(=O)*; C18 diacid = O=C(O)CCCCCCCCCCCCCCCCC(=O)*; γGlu = O=C(O)[C@H](CCC(=O)[*:2])N[*:1]; αMeF = C[C@](N)(Cc1ccccc1)C(=O)O; AEEA = NCCOCCOCC(=O)O; Aib = CC(C)(N)C(=O)O

B1: Peptide 465 (peptide)
peptide: H[Aib]QGTFTSDVSK[αMeF]LDLK([AEEA-AEEA-γGlu-γGlu-C18 diacid])RAQDFVQWLL[Aib]T-OH
modifications: N-terminus assumed
SMILES: CC(C)C[C@H](NC(=O)[C@H](CC(=O)O)NC(=O)[C@H](CC(C)C)NC(=O)[C@](C)(Cc1ccccc1)NC(=O)[C@H](CCCCN)NC(=O)[C@H](CO)NC(=O)[C@@H](NC(=O)[C@H](CC(=O)O)NC(=O)[C@H](CO)NC(=O)[C@@H](NC(=O)[C@H](Cc1ccccc1)NC(=O)[C@@H](NC(=O)CNC(=O)[C@H](CCC(N)=O)NC(=O)C(C)(C)NC(=O)[C@@H](N)Cc1c[nH]cn1)[C@@H](C)O)[C@@H](C)O)C(C)C)C(=O)N[C@@H](CCCCNC(=O)COCCOCCNC(=O)COCCOCCNC(=O)CC[C@H](NC(=O)CC[C@H](NC(=O)CCCCCCCCCCCCCCCCC(=O)O)C(=O)O)C(=O)O)C(=O)N[C@@H](CCCNC(=N)N)C(=O)N[C@@H](C)C(=O)N[C@@H](CCC(N)=O)C(=O)N[C@@H](CC(=O)O)C(=O)N[C@@H](Cc1ccccc1)C(=O)N[C@H](C(=O)N[C@@H](CCC(N)=O)C(=O)N[C@@H](Cc1c[nH]c2ccccc12)C(=O)N[C@@H](CC(C)C)C(=O)N[C@@H](CC(C)C)C(=O)NC(C)(C)C(=O)N[C@H](C(=O)O)[C@@H](C)O)C(C)C
B2: Peptide 455 (peptide)
peptide: H[Aib]QGTFTSDVSK[αMeF]LDKK([AEEA-AEEA-γGlu-γGlu-C20 diacid])RAQDFVRWLL[Aib]E-NH2
modifications: N-terminus assumed
SMILES: CC(C)C[C@H](NC(=O)[C@H](Cc1c[nH]c2ccccc12)NC(=O)[C@H](CCCNC(=N)N)NC(=O)[C@@H](NC(=O)[C@H](Cc1ccccc1)NC(=O)[C@H](CC(=O)O)NC(=O)[C@H](CCC(N)=O)NC(=O)[C@H](C)NC(=O)[C@H](CCCNC(=N)N)NC(=O)[C@H](CCCCNC(=O)COCCOCCNC(=O)COCCOCCNC(=O)CC[C@H](NC(=O)CC[C@H](NC(=O)CCCCCCCCCCCCCCCCCCC(=O)O)C(=O)O)C(=O)O)NC(=O)[C@H](CCCCN)NC(=O)[C@H](CC(=O)O)NC(=O)[C@H](CC(C)C)NC(=O)[C@](C)(Cc1ccccc1)NC(=O)[C@H](CCCCN)NC(=O)[C@H](CO)NC(=O)[C@@H](NC(=O)[C@H](CC(=O)O)NC(=O)[C@H](CO)NC(=O)[C@@H](NC(=O)[C@H](Cc1ccccc1)NC(=O)[C@@H](NC(=O)CNC(=O)[C@H](CCC(N)=O)NC(=O)C(C)(C)NC(=O)[C@@H](N)Cc1c[nH]cn1)[C@@H](C)O)[C@@H](C)O)C(C)C)C(C)C)C(=O)N[C@@H](CC(C)C)C(=O)NC(C)(C)C(=O)N[C@@H](CCC(=O)O)C(N)=O
B3: Peptide 456 (peptide)
peptide: H[Aib]QGTFTSDVSK[αMeF]LDRK([AEEA-AEEA-γGlu-C20 diacid])RAQDFVRWLL[Aib]E-NH2
modifications: N-terminus assumed
SMILES: CC(C)C[C@H](NC(=O)[C@H](Cc1c[nH]c2ccccc12)NC(=O)[C@H](CCCNC(=N)N)NC(=O)[C@@H](NC(=O)[C@H](Cc1ccccc1)NC(=O)[C@H](CC(=O)O)NC(=O)[C@H](CCC(N)=O)NC(=O)[C@H](C)NC(=O)[C@H](CCCNC(=N)N)NC(=O)[C@H](CCCCNC(=O)COCCOCCNC(=O)COCCOCCNC(=O)CC[C@H](NC(=O)CCCCCCCCCCCCCCCCCCC(=O)O)C(=O)O)NC(=O)[C@H](CCCNC(=N)N)NC(=O)[C@H](CC(=O)O)NC(=O)[C@H](CC(C)C)NC(=O)[C@](C)(Cc1ccccc1)NC(=O)[C@H](CCCCN)NC(=O)[C@H](CO)NC(=O)[C@@H](NC(=O)[C@H](CC(=O)O)NC(=O)[C@H](CO)NC(=O)[C@@H](NC(=O)[C@H](Cc1ccccc1)NC(=O)[C@@H](NC(=O)CNC(=O)[C@H](CCC(N)=O)NC(=O)C(C)(C)NC(=O)[C@@H](N)Cc1c[nH]cn1)[C@@H](C)O)[C@@H](C)O)C(C)C)C(C)C)C(=O)N[C@@H](CC(C)C)C(=O)NC(C)(C)C(=O)N[C@@H](CCC(=O)O)C(N)=O
B4: Peptide 452 (peptide)
peptide: H[Aib]QGTFTSDVSK[αMeF]LDKK([AEEA-AEEA-γGlu-C20 diacid])RALDFVRWLL[Aib]E-NH2
modifications: N-terminus assumed
SMILES: CC(C)C[C@H](NC(=O)[C@H](C)NC(=O)[C@H](CCCNC(=N)N)NC(=O)[C@H](CCCCNC(=O)COCCOCCNC(=O)COCCOCCNC(=O)CC[C@H](NC(=O)CCCCCCCCCCCCCCCCCCC(=O)O)C(=O)O)NC(=O)[C@H](CCCCN)NC(=O)[C@H](CC(=O)O)NC(=O)[C@H](CC(C)C)NC(=O)[C@](C)(Cc1ccccc1)NC(=O)[C@H](CCCCN)NC(=O)[C@H](CO)NC(=O)[C@@H](NC(=O)[C@H](CC(=O)O)NC(=O)[C@H](CO)NC(=O)[C@@H](NC(=O)[C@H](Cc1ccccc1)NC(=O)[C@@H](NC(=O)CNC(=O)[C@H](CCC(N)=O)NC(=O)C(C)(C)NC(=O)[C@@H](N)Cc1c[nH]cn1)[C@@H](C)O)[C@@H](C)O)C(C)C)C(=O)N[C@@H](CC(=O)O)C(=O)N[C@@H](Cc1ccccc1)C(=O)N[C@H](C(=O)N[C@@H](CCCNC(=N)N)C(=O)N[C@@H](Cc1c[nH]c2ccccc12)C(=O)N[C@@H](CC(C)C)C(=O)N[C@@H](CC(C)C)C(=O)NC(C)(C)C(=O)N[C@@H](CCC(=O)O)C(N)=O)C(C)C
B5: Peptide 466 (peptide)
peptide: H[Aib]QGTFTSDVSK[αMeF]LDTK([AEEA-AEEA-γGlu-C18 diacid])RAQDFVQWLLE[Aib]G-NH2
modifications: N-terminus assumed
SMILES: CC(C)C[C@H](NC(=O)[C@H](Cc1c[nH]c2ccccc12)NC(=O)[C@H](CCC(N)=O)NC(=O)[C@@H](NC(=O)[C@H](Cc1ccccc1)NC(=O)[C@H](CC(=O)O)NC(=O)[C@H](CCC(N)=O)NC(=O)[C@H](C)NC(=O)[C@H](CCCNC(=N)N)NC(=O)[C@H](CCCCNC(=O)COCCOCCNC(=O)COCCOCCNC(=O)CC[C@H](NC(=O)CCCCCCCCCCCCCCCCC(=O)O)C(=O)O)NC(=O)[C@@H](NC(=O)[C@H](CC(=O)O)NC(=O)[C@H](CC(C)C)NC(=O)[C@](C)(Cc1ccccc1)NC(=O)[C@H](CCCCN)NC(=O)[C@H](CO)NC(=O)[C@@H](NC(=O)[C@H](CC(=O)O)NC(=O)[C@H](CO)NC(=O)[C@@H](NC(=O)[C@H](Cc1ccccc1)NC(=O)[C@@H](NC(=O)CNC(=O)[C@H](CCC(N)=O)NC(=O)C(C)(C)NC(=O)[C@@H](N)Cc1c[nH]cn1)[C@@H](C)O)[C@@H](C)O)C(C)C)[C@@H](C)O)C(C)C)C(=O)N[C@@H](CC(C)C)C(=O)N[C@@H](CCC(=O)O)C(=O)NC(C)(C)C(=O)NCC(N)=O
B6: Peptide 453 (peptide)
peptide: H[Aib]QGTFTSDVSK[αMeF]LDKK([AEEA-AEEA-γGlu-C20 diacid])RAQDFVRWLLE[Aib]G-NH2
B7: Peptide 468 (peptide)
peptide: H[Aib]QGTFTSDVSK[αMeF]LDTK([AEEA-AEEA-γGlu-γGlu-C18 diacid])RAQDFVQWLLE[Aib]G-NH2
B8: Peptide 460 (peptide)
peptide: H[Aib]QGTFTSDVSK[αMeF]LDKK([AEEA-AEEA-γGlu-C20 diacid])RAQDFVRWLLAE-NH2
B9: Peptide 462 (peptide)
peptide: H[Aib]QGTFTSDVSK[αMeF]LDTK([AEEA-AEEA-γGlu-C18 diacid])RARDFVQWLLEAG-OH
modifications: N-terminus assumed
SMILES: CC(C)C[C@H](NC(=O)[C@H](CC(C)C)NC(=O)[C@H](Cc1c[nH]c2ccccc12)NC(=O)[C@H](CCC(N)=O)NC(=O)[C@@H](NC(=O)[C@H](Cc1ccccc1)NC(=O)[C@H](CC(=O)O)NC(=O)[C@H](CCCNC(=N)N)NC(=O)[C@H](C)NC(=O)[C@H](CCCNC(=N)N)NC(=O)[C@H](CCCCNC(=O)COCCOCCNC(=O)COCCOCCNC(=O)CC[C@H](NC(=O)CCCCCCCCCCCCCCCCC(=O)O)C(=O)O)NC(=O)[C@@H](NC(=O)[C@H](CC(=O)O)NC(=O)[C@H](CC(C)C)NC(=O)[C@](C)(Cc1ccccc1)NC(=O)[C@H](CCCCN)NC(=O)[C@H](CO)NC(=O)[C@@H](NC(=O)[C@H](CC(=O)O)NC(=O)[C@H](CO)NC(=O)[C@@H](NC(=O)[C@H](Cc1ccccc1)NC(=O)[C@@H](NC(=O)CNC(=O)[C@H](CCC(N)=O)NC(=O)C(C)(C)NC(=O)[C@@H](N)Cc1c[nH]cn1)[C@@H](C)O)[C@@H](C)O)C(C)C)[C@@H](C)O)C(C)C)C(=O)N[C@@H](CCC(=O)O)C(=O)N[C@@H](C)C(=O)NCC(=O)O
B10: Peptide 454 (peptide)
peptide: H[Aib]QGTFTSDVSK[αMeF]LDKK([AEEA-AEEA-γGlu-C20 diacid])RAQDFVRWLEA[Aib]G-NH2
modifications: N-terminus assumed
SMILES: CC(C)C[C@H](NC(=O)[C@H](Cc1c[nH]c2ccccc12)NC(=O)[C@H](CCCNC(=N)N)NC(=O)[C@@H](NC(=O)[C@H](Cc1ccccc1)NC(=O)[C@H](CC(=O)O)NC(=O)[C@H](CCC(N)=O)NC(=O)[C@H](C)NC(=O)[C@H](CCCNC(=N)N)NC(=O)[C@H](CCCCNC(=O)COCCOCCNC(=O)COCCOCCNC(=O)CC[C@H](NC(=O)CCCCCCCCCCCCCCCCCCC(=O)O)C(=O)O)NC(=O)[C@H](CCCCN)NC(=O)[C@H](CC(=O)O)NC(=O)[C@H](CC(C)C)NC(=O)[C@](C)(Cc1ccccc1)NC(=O)[C@H](CCCCN)NC(=O)[C@H](CO)NC(=O)[C@@H](NC(=O)[C@H](CC(=O)O)NC(=O)[C@H](CO)NC(=O)[C@@H](NC(=O)[C@H](Cc1ccccc1)NC(=O)[C@@H](NC(=O)CNC(=O)[C@H](CCC(N)=O)NC(=O)C(C)(C)NC(=O)[C@@H](N)Cc1c[nH]cn1)[C@@H](C)O)[C@@H](C)O)C(C)C)C(C)C)C(=O)N[C@@H](CCC(=O)O)C(=O)N[C@@H](C)C(=O)NC(C)(C)C(=O)NCC(N)=O

Each binder was assayed against human GLP-1 receptor (human, UniProt P43220) (assay: cell-based or functional assay).

cAMP production EC50 | Binder
485 pM | B1
127 pM | B2
133 pM | B3
495 pM | B4
35.6 pM | B5
170 pM | B6
67.5 pM | B7
117 pM | B8
39.5 pM | B9
173 pM | B10

What follows are binders tested against human glucagon receptor (human, UniProt P47871) (assay: cell-based or functional assay).

cAMP production EC50 | Binder
436 pM | B1
114 pM | B2
80.3 pM | B3
151 pM | B4
131 pM | B5
162 pM | B6
292 pM | B7
66.5 pM | B8
89.2 pM | B9
274 pM | B10
